US8921515B2, “Methods and compositions of preparation for proteome analysis” (Case Western Reserve University, priority 2011, dated 2014)
Entries after “also recorded” stand apart in the source; their conditions may differ. Structures can show the parent of a compound that is named as a salt. Where two headings read alike, the source gives them in different places. Square brackets hold non-standard residues; d marks the D form. Ends that are not written are not given here. Met(O) = CS(=O)CC[C@H](N)C(=O)O

Key:
[1] = system: OS membrane protein pellet; assay: Protein solubilization efficiencies of solubilizing agents (DC protein assay of supernatant)
Protocol: Bovine retinas obtained from WL Lawson Company (Omaha, Nebr.) were used to prepare the photoreceptor outer segment (OS) by sucrose density ultracentrifugation. All solvents used for bovine OS preparations contained protease inhibitors (1 mM EDTA, 0.2 mM PMSF, 0.7 μg/μL leupeptin, and 0.5 μg/μL pepstatin A) to inhibit protein degradation and 100 μM diethylenetriamine pentaacetic acid (DTPA) to inhibit oxidation.
The solubilized pellet solution was sonicated with a VirSonic 100 ultrasonic cell disrupter (SP Scientific, Gardiner, N.Y.) three times at 4.5 kHz of ultrasonic frequency for 9 seconds with 3-minute intervals between the sonications. The resulting protein extract was centrifuged at 15,000 g for 10 minutes, and the solubilized proteins in the supernatant were quantified using a DC protein assay kit (Bio-Rad, Hercules, Calif.).

porcine trypsin = biological target: T1, porcine trypsin (Sus scrofa, UniProt P00761); assay: Effect of solubilizing agents on trypsin amidase activity (Ac-Lys-p-nitroaniline hydrolysis, 405 nm); format: biochemical
T1 construct: purchased Promega
T1 sequence (P00761 9-231): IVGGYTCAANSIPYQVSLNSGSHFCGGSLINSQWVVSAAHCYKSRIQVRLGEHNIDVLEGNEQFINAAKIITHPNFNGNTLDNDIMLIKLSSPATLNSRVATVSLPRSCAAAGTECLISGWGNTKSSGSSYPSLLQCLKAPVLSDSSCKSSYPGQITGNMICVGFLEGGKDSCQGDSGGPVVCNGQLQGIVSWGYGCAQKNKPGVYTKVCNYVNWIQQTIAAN
Protocol: To measure the amidase activity of 100 nM trypsin, we tracked the hydrolysis of 2 mM Ac-Lys-p-nitro aniline hydrochloride through absorbance increase at 405 nm over 3 min in 100 mM ABC using an ELISA plate reader (Thermo-Fisher Scientific, Waltham, Mass.).

[2] = cited from earlier work
[3] = pI values of BSA tryptic peptides; format: physicochemical

| Molecule | pI [3] | other results |
| --- | --- | --- |
| N=C(N)N [Gdn-HCl, guanidine hydrochloride] |  | Protein amount solubilized [1]: 7.3 ± 4.1 μg/10μ OS membrane preparation; protein solubilized from OS membrane protein pellet [1]: 7.3 µg; trypsin activity retained (porcine trypsin; 0.1 M agent): 40%; trypsin activity retained (porcine trypsin; 0.25 M agent): 20% |
| O=C(O)C(F)(F)C(F)(F)C(F)(F)C(F)(F)C(F)(F)C(F)(F)C(F)(F)F [PFOA, perfluorooctanoic acid] |  | Protein amount solubilized ([1]; OS membrane pellet in 100 mM ABC with agent at the concentration printed in the row (25 mM SDS 0.8% w/v, 25 mM PFOA 1% w/v, 4M urea, 4M Gdn-HCl), mean ± SD, triplicate): 47.4 ± 4.4 μg/10μ OS membrane preparation; protein solubilized from OS membrane protein pellet ([1]; text: 100 mM ABC, 1% PFOA, 1% SDS, urea, Gdn-HCl): 47.4 µg; trypsin activity retained (porcine trypsin; 0.5% surfactant, control without agent = 100%): more than 80%; trypsin activity retained (porcine trypsin; PFOA concentrations up to 0.25%, control without agent = 100%): fully enzymatically activity; also recorded: full activity; pKa ([2]; carboxyl group, at infinite dilution / diluted solution, determined experimentally): 3.8; pKa ([2]; other reports): lower than 1 |
| NC(N)=O [Urea, urea] |  | Protein amount solubilized [1]: 8.1 ± 3.4 μg/10μ OS membrane preparation; protein solubilized from OS membrane protein pellet [1]: 8.1 µg; trypsin activity retained (porcine trypsin; 2 M agent): approximately 50%; trypsin activity retained (porcine trypsin; 4 M agent): ~20% |
| AEFVEVTK (listed as Homo sapiens) [SEQ ID No: 7, tryptic peptide of BSA] | 4.5 |  |
| DAFLGSFLYEYSR (listed as Homo sapiens) [SEQ ID No: 13, tryptic peptide of BSA] | 4.4 |  |
| ECCHGDLLECADDR (listed as Homo sapiens) [SEQ ID No: 17, tryptic peptide of BSA] | 4.1 |  |
| ETYGDM(o)ADCCEK (ETYGD[Met(O)]ADCCEK; cysteine pairing not given here; listed as Homo sapiens) [SEQ ID No: 20, tryptic peptide of BSA] | 3.9 |  |
| ETYGDMADCCEK (listed as Homo sapiens) [SEQ ID No: 21, tryptic peptide of BSA] | 3.9 |  |
| EYEATLEECCAK (listed as Homo sapiens) [SEQ ID No: 18, tryptic peptide of BSA] | 4.1 |  |
| KQTALVELLK (listed as Homo sapiens) [SEQ ID No: 6, tryptic peptide of BSA] | 8.6 |  |
| KVPQVSTPTLVEVSR (listed as Homo sapiens) [SEQ ID No:5, tryptic peptide of BSA] | 8.8 |  |
| LGEYGFQNALIVR (listed as Homo sapiens) [SEQ ID No: 10, tryptic peptide of BSA] | 6.0 |  |
| LKPDPNTLCDEFK (listed as Homo sapiens) [SEQ ID No: 12, tryptic peptide of BSA] | 4.6 |  |
| LVNELTEFAK (listed as Homo sapiens) [SEQ ID No: 4, tryptic peptide of BSA] | 4.5 |  |
| LVTDLTK (listed as Homo sapiens) [SEQ ID No: 1, tryptic peptide of BSA] | 5.8 |  |
| M(o)PCTEDYLSLILNR ([Met(O)]PCTEDYLSLILNR; listed as Homo sapiens) [SEQ ID No: 14, tryptic peptide of BSA] | 4.4 |  |
| RHPEYAVSVLLR (listed as Homo sapiens) [SEQ ID No: 9, tryptic peptide of BSA] | 8.8 |  |
| RHPYFYAPELLYYANK (listed as Homo sapiens) [SEQ ID No: 8, tryptic peptide of BSA] | 8.4 |  |
| SLHTLFGDELCK (listed as Homo sapiens) [SEQ ID No: 11, tryptic peptide of BSA] | 5.3 |  |
| TCVADESHAGCEK (listed as Homo sapiens) [SEQ ID No: 19, tryptic peptide of BSA] | 4.7 |  |
| TVMENFVAFVDK (listed as Homo sapiens) [SEQ ID No: 16, tryptic peptide of BSA] | 4.4 |  |
| VPQVSTPTLVEVSR (listed as Homo sapiens) [SEQ ID No: 3, tryptic peptide of BSA] | 6.0 |  |
| YIYEIAR (listed as Homo sapiens) [SEQ ID No: 2, tryptic peptide of BSA] | 6.0 |  |
| YNGVFQECCQAEDK (listed as Homo sapiens) [SEQ ID No: 15, tryptic peptide of BSA] | 4.1 |  |
